From paper doi:10.1101/2024.03.03.583237 (bioRxiv, 2024) come the findings set out here.

Targets include RaTG13 NTD-mFc (Bat coronavirus RaTG13, UniProt A0ABF7PLN6); SARS-CoV-2 NTD-mFc (SARS-CoV-2 Wuhan-Hu-1 (NC_045512), UniProt P0DTC2); ZC45 NTD-mFc (Bat SARS-like coronavirus ZC45 …, UniProt A0A2R3SUW7); SARS-CoV-1 NTD-mFc (SARS-CoV-1 (NC_004718, Tor2), UniProt P59594).
What all share (test): live-cell binding assay

B1: S2L20-CVR (scFv, V domains shown)
VH: EVQLVESGGGVVQPGGSLRLSCAASGFTFNSYGMHWVRQAPGKGLEWVAFIRYDGGNKYYADSVKGRFTISRDNSKNTLYLQMKSLRAEDTAVYYCANLKDSRYSGSYYDYWGQGTLVTVS
VL: not shown
As to B1, the binding result was “binds” with RaTG13 NTD-mFc, “binds” with SARS-CoV-2 NTD-mFc, “no binding” with ZC45 NTD-mFc and “no binding” with SARS-CoV-1 NTD-mFc.
